The values below come from patent US20140178332A1 (published 2014).

As usually defined, the IC50 is the concentration that gives 50% inhibition. The term Kd denotes the concentration at which binding is half-saturated. For orientation: koff means the first-order rate constant of dissociation. By kon is commonly meant the second-order rate constant of association.

Test [1] concerns the target T1, recombinant purified human IL-12 p70 (human, UniProt P29459 23-219).
T1 construct: Disulfide-linked heterodimer of p35 and p40; also called hIL-12; Hu IL-12
T1 sequence 1: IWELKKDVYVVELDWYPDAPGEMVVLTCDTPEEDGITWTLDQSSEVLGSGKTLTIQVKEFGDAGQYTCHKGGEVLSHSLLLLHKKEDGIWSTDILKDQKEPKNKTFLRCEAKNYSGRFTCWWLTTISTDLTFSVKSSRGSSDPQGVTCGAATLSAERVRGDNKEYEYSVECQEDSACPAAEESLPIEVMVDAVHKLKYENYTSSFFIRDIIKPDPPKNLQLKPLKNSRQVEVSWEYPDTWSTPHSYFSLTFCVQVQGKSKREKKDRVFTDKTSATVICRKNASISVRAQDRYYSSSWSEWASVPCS
T1 sequence 2: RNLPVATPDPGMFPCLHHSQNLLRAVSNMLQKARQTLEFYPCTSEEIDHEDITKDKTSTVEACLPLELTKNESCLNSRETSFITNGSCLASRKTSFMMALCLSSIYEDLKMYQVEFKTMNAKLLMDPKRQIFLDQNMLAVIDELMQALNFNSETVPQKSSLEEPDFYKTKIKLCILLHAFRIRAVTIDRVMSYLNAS
Kind of test: competition ELISA on coated human IL-12, competitor of 0.8 µg/ml biotinylated 8E1, Expt. 2. The procedure:
MaxiSorp ELISA plates (Nalge Nunc International) were coated overnight at 4° C. with 100 μl/well of 1.0 μg/ml human IL-12 in 0.2 M sodium carbonate-bicarbonate buffer, pH 9.4, washed with Wash Buffer (PBS containing 0.1% Tween 20), and blocked for 1 hr at room temperature with 300 μl/well of SuperBlock Blocking Buffer in TBS (Pierce Chemical Company). After washing with Wash Buffer, a mixture of biotinylated 8E 1 ([…] final concentration) and competitor antibody (8E1 or 8E1.4 or 8E1.5 or 8E1.6) starting at 100 μg/ml final concentration and serially diluted 3-fold) in 100 μl/well of ELISA buffer was added in duplicate. As isotype controls, 100 μl/well of 100 μg/ml mouse IgG 1/κ (MuFd79) or humanized IgG1/κ (HuFd79) monoclonal antibodies in ELISA buffer was used. As a no-competitor control, 100 μl/well of ELISA Buffer was used. After incubating the plates for 1 hr at room temperature, and washing with Wash Buffer, bound antibodies were detected using 100 μl/well of 1 μg/ml HRP-conjugated streptavidin (Pierce Chemical Company) in ELISA buffer. After incubating for 1 hr at room temperature, and washing with Wash Buffer, color development was performed by adding 100 μl/well of ABTS Peroxidase Substrate/Peroxidase Solution B (KPL, Inc.). […] Absorbance was read at 415 nm.
(§1) The affinity of 8E1.4, 8E1.5 and 8E1.6 to human IL-12 was analyzed by competition ELISA as described above.
Background: ELISA stands for enzyme-linked immunosorbent assay.

Test [2] addresses T1, recombinant purified human IL-12 p70. The experiment in a line: competition ELISA on coated human IL-12, competitor of 0.8 µg/ml biotinylated 8E1, Expt. 3. The procedure:
(§2) MaxiSorp ELISA plates (Nalge Nunc International) were coated overnight at 4° C. with 100 μl/well of 1.0 μg/ml human IL-12 in 0.2 M sodium carbonate-bicarbonate buffer, pH 9.4, washed with Wash Buffer (PBS containing 0.1% Tween 20), and blocked for 1 hr at room temperature with 300 μl/well of SuperBlock Blocking Buffer in TBS (Pierce Chemical Company). […] As isotype controls, 100 μl/well of 100 μg/ml mouse IgG 1/κ (MuFd79) or humanized IgG1/κ (HuFd79) monoclonal antibodies in ELISA buffer was used. As a no-competitor control, 100 μl/well of ELISA Buffer was used. After incubating the plates for 1 hr at room temperature, and washing with Wash Buffer, bound antibodies were detected using 100 μl/well of 1 μg/ml HRP-conjugated streptavidin (Pierce Chemical Company) in ELISA buffer. After incubating for 1 hr at room temperature, and washing with Wash Buffer, color development was performed by adding 100 μl/well of ABTS Peroxidase Substrate/Peroxidase Solution B (KPL, Inc.). After incubating for 5 min at room temperature, color development was stopped by adding 50 μl/well of 2% oxalic acid. Absorbance was read at 415 nm.
as §1

Test [3] shares this target. Kind of test: competition ELISA on coated human IL-12, competitor of 0.8 µg/ml biotinylated 8E1, Expt. 1. The procedure:
as §2, §1

The target is the same in test [4]. The experiment in a line: SPR (Biacore), mAb captured on anti-mouse IgG Fc, IL-12 p70 as analyte. The procedure:
The BIACORE assay (Biacore, Inc, Piscataway, N.J.) determines the affinity of antibodies with kinetic measurements of on-, off-rate constants. Binding of antibodies to recombinant purified human IL-12 p70 or recombinant purified human IL-12 p40 were determined by surface plasmon resonance-based measurements with a Biacore® 3000 instrument (Biacore® AB, Uppsala, Sweden) using running HBS-EP (10 mM HEPES [pH 7.4], 150 mM NaCl, 3 mM EDTA, and 0.005% surfactant P20) at 25° C. All chemicals were obtained from Biacore® AB (Uppsala, Sweden) or otherwise from a different source as described in the text. Approximately 5000 RU of goat anti-mouse IgG, (Fcγ), fragment specific polyclonal antibody (Pierce Biotechnology Inc, Rockford, Ill.) diluted in 10 mM sodium acetate (pH 4.5) was directly immobilized across a CM5 research grade biosensor chip using a standard amine coupling kit according to manufacturer's instructions and procedures at 25 μg/ml. Unreacted moieties on the biosensor surface were blocked with ethanolamine. Modified carboxymethyl dextran surface in flowcell 2 and 4 was used as a reaction surface. Unmodified carboxymethyl dextran without goat anti-mouse IgG in flow cell 1 and 3 was used as the reference surface. For kinetic analysis, rate equations derived from the 1:1 Langmuir binding model were fitted simultaneously to association and dissociation phases of all eight injections (using global fit analysis) with the use of Biaevaluation 4.0.1 software. Purified antibodies were diluted in HEPES-buffered saline for capture across goat anti-mouse IgG specific reaction surfaces. Mouse antibodies to be captured as a ligand (25 μg/ml) were injected over reaction matrices at a flow rate of 5 μl/min. The association and dissociation rate constants, kₒₙ (unit M⁻¹ s⁻¹) and koff (unit s⁻¹) were determined under a continuous flow rate of 25 μl/min. Rate constants were derived by making kinetic binding measurements at ten different antigen concentrations ranging from 10-200 nM. The equilibrium dissociation constant (unit M) of the reaction between mouse antibodies and recombinant purified human IL-12 p70 or recombinant purified human IL-12 p40 was then calculated from the kinetic rate constants by the following formula: KD=koff/kₒₙ. Binding is recorded as a function of time and kinetic rate constants are calculated.

B1: murine anti-human IL-12p40 monoclonal antibody 8E1 (antibody, V domains shown)
VH: EVKLVESGGGLVQPGGSRKLSCAASGFTFSDYGMVWVRQAPGKGLEWVASISSGSSNIYYADTVKGRFTISRDDPNNTLFLQMRSLRSEDTAMYYCARNPYWGQGTTLTVSS
VL: DIVMTQSQKFMSTSVGDRVSVTCKASQNVGTNVAWYQQKPGQSPKGLIYSASHRYSGVPDRFAGSGSGTDFTLTISNVQSEDLAEYFCQQYNSYPLTFGGGTKLELKR
notes: Murine mAb; also called biotinylated 8E1
For the molecule B1, in test [1], the 50% inhibitory concentration (IC50) was 2.78 µg/mL. In addition, the IC50 in test [2] turned out to be 2.28 µg/mL. For the same molecule, the IC50 in test [3] turned out to be 2.63 µg/mL. In test [4], the dissociation constant Kd turned out to be 0.074 nM, the koff stood at 5.1e-05 s⁻¹ and the kon was 690000 M⁻¹ s⁻¹.
